Results on 4 sequences are retold here after US20090042250.

What all share (assay): cell_activity
In data set [1] the test system is ZFN 12176 (synthetic construct). As to conditions: pair 12172/12176 (3.0 with 12170), CHO K-1, Cel-1 assay 2 days post-transfection.
The subject of data set [2] is ZFN 12030 (synthetic construct). As to conditions: pair 12029/12030, CHO K-1, Cel-1 assay 2 days post-transfection.
In data set [3] the test system is ZFN 12172 (synthetic construct). As to conditions: pair 12172/12176, CHO K-1, Cel-1 assay 2 days post-transfection.
Data set [4] deals with ZFN 12170 (synthetic construct). As to conditions: pair 12170/12176, CHO K-1, Cel-1 assay 2 days post-transfection.
Data set [5] concerns ZFN 12029 (synthetic construct). As to conditions: pair 12029/12030, CHO K-1, Cel-1 assay 2 days post-transfection.

In turn, “AAGAAGGGTCATCAG (double strand) [FUT8 exon 10 12176 half-site]” had an activity (% chromosomes modified) in data set [1] of 4.4. In turn, “AAGGACACACTG (double strand) [FUT8 12030 half-site]” registered an activity (% chromosomes modified) in data set [2] of 3.3. As to “AAGGAGGCAAAGACAAAG (double strand) [FUT8 exon 10 12170/12172 half-site]”, the activity (% chromosomes modified) in data set [3] was determined as 4.4; in data set [4] it was 3. Sequence “GTCTCGGATGCT (double strand) [FUT8 12029 half-site]” yielded an activity (% chromosomes modified) in data set [5] of 3.3.
